Results on two proteins are retold here after publication PMC4380140 (Journal of biomolecular screening, 2012).

The series “SEC” deals with the molecule itself. As to the kind of experiment: SEC.
The series “dynamic light scattering” deals with the molecule itself. In words: dynamic light scattering.

B1: ectodomain ephrinB1 (ed-ephrinB1), amino acids 26-236 of mouse ephrinB1 extracellular domain (domain or fragment, UniProt P52795 26-236, looked up)
chain: TPLAKNLEPVSWSSLNPKFLSGKGLVIYPKIGDKLDIICPRAEAGRPYEYYKLYLVRPEQAAACSTVLDPNVLVTCNKPHQEIRFTIKFQEFSPNYMGLEFKKYHDYYITSTSNGSLEGLENREGGVCRTRTMKIVMKVGQDPNAVTPEQLTTSRPSKESDNTVKTATQAPGRGSQGDSDGKHETVNQEEKSGPGAGGGGSGDSDSFFNSK
On to B1, for which the binding result in the series “SEC” is “binds”.

B2: ectodomain ephrinB3 (ed-ephrinB3), amino acids 28-227 of mouse ephrinB3 extracellular domain (domain or fragment, UniProt O35393 28-227, looked up)
chain: LSLEPVYWNSANKRFQAEGGYVLYPQIGDRLDLLCPRARPPGPHSSPSYEFYKLYLVEGAQGRRCEAPPAPNLLLTCDRPDLDLRFTIKFQEYSPNLWGHEFRSHHDYYIIATSDGTREGLESLQGGVCLTRGMKVLLRVGQSPRGGAVPRKPVSEMPMERDRGAAHSAEPGRDTIPGDPSSNATSRGAEGPLPPPSMPA
As usually defined, the stoichiometry N is the number of molecules, sites or subunits per partner or assembly. Consider B2, for which, in the series “dynamic light scattering”, the “stoichiometry N” value was 104 monomers per particle.
